Among the data in publication PMC3436581 are percent of total protein in the tetramer band and stoichiometry N values, retold here.

In the assay the target is Cu^2+-catalyzed oxidized PrP(23–231) (mild condition) (mouse) (UniProt P04925). Description: SEC. On the technique in general: Size exclusion chromatography separates by hydrodynamic size, large species first.

As usually defined, the stoichiometry N is a count of units in the complex or per binding partner. “Cu^2+-catalyzed oxidized PrP(23–231) (mild condition) (from UniProt P04925 23-231) (natural protein)” gave a percent of total protein in the tetramer band of less than 5% and a stoichiometry N of 4.
